The values that follow come from article PMC8401544, “Cytotoxicity of Frutalin on Distinct Cancer Cells Is Independent of Its Glycosylation” (Molecules, 2021).

The data set deals with the molecule itself. In words: dynamic light scattering; protein at 0.8-1.0 mg/mL in phosphate buffer, room temperature, filtered through 0.45 um; size distribution by intensity; measured diameter compared with that expected from the theoretical MW of a tetramer.

B1: Frutalin produced in E. coli in fusion with TrxA (TrxFTL) (natural protein, Artocarpus incisa)
chain: SSGENLYFQGAMGNQQSGKSQTVIVGPWGAKVSTSSNGKAFDDGAFTGIREINLSYNKETAIGDFQVVYDLNGSPYVGQNHKSFITGFTPVKISLDFPSEYIMEVSGYTGNVSGYVVVRSLTFKTNKKTYGPYGVTSGTPFNLPIENGLIVGFKGSIGYWLDYFSMYLSL
notes: 13 extra amino acids between the 6xHistag and frutalin; not glycosylated; Vector pETM20; also called FTL in fusion with TrxA; source: E. coli BL21(DE3) (NZYBL21), purified (IMAC, Nickel HisTrap); not shown: TrxA, N-terminal, kept; His6, internal (between TrxA and the TEV recognition site), kept
Regarding B1, the “stoichiometry N” value was 4.

B2: Frutalin produced in E. coli cleaved from TrxFTL (cFTL) (natural protein, Artocarpus incisa)
chain: GAMGNQQSGKSQTVIVGPWGAKVSTSSNGKAFDDGAFTGIREINLSYNKETAIGDFQVVYDLNGSPYVGQNHKSFITGFTPVKISLDFPSEYIMEVSGYTGNVSGYVVVRSLTFKTNKKTYGPYGVTSGTPFNLPIENGLIVGFKGSIGYWLDYFSMYLSL
notes: residues left after TEV cleavage (GA) and MG from the cloning restriction site; not glycosylated; 17421.61 Da by calculation; also called cleaved FTL; FTL cleaved from TrxFTL; source: E. coli BL21(DE3) (NZYBL21), purified (IMAC, TEV digestion, reverse IMAC on Ni-NTA); not shown: TrxA, N-terminal, cleaved; His6, N-terminal, cleaved
As for B2, the “stoichiometry N” value was 4.
